What was measured:
[1] = test system: acyl-CoA synthetases; experiment: In vitro activity assay of Schizochytrium FAS-KO cell free homogenate with Triacsin C (HIP extraction, normal phase TLC, phosphorimage); assay type: biochemical; settings: FAS-KO sample; Triacsin C 0, 25, 100 or 200 uM for 10 minutes, then ATP and Mg+2, additional 20 minutes; effect at higher concentrations
Experimental: An example of a protocol for in vitro activity assays of both FAS and PUFA synthase activities is as follows. In a final volume of 100 uL, mix the enzyme preparation and Buffer A (volume of these 2 components=90 uL) plus the following components added as a cocktail (in 10 uL) to yield the final concentrations indicated in parenthesis: malonyl-CoA (50 uM—a mixture of cold and malonyl-2-^14C-CoA such that the final concentration of radiolabel is 0.65 μCi/mL), NADH (1 mM), NADPH (1 mM) and acetyl-CoA (10 uM). These components and additional components can be adjusted depending on the requirements of the particular experiments. The assay reactions are carried out in glass tubes in a room temperature (˜21° C.) water bath. The time of incubation is dependant on the experimental requirements. The reactions are stopped by one of two methods depending on the work-up protocol. For conversion of fatty acids to fatty acid methyl-esters (FAMEs) using an acidic method, the reaction is stopped by adding the FAME reagent (see below). For extraction of lipids without derivatization, the reaction is stopped by addition of 125 uL of isopropanol:acetic acid (4:1 v/v) (see below). […]

[2] = test system: yeast; experiment: FAME analysis of yeast expressing Schizochytrium PUFA synthase and Het I with co-expressed acyl-CoA synthetase; assay type: cell-based, Saccharomyces cerevisiae; settings: data not shown
Excerpt: More specifically, the yeast expression system described in the Examples above was modified to accommodate introduction of the fifth ACoAS gene (i.e., the yeast also contained OrfsA, B and C of the Schizochytrium PUFA synthase system and a PPTase (Het I from Nostoc)) using 4 vectors. Yeast expression vectors in which two genes can be cloned (the pESC vectors) were obtained from Stratagene. These vectors are similar to and compatible with the pYES vectors described above. […] This provides confirmation that the accumulation of the products of the PUFA synthase in heterologous host can be increased by co-expression of enzymes that may be more efficient at utilization of those products.
In subsequent experiments, ScACS-3, ScACS-5, ScACS-6 and ScACS-8 were also tested in yeast that contained the genes encoding the Schizochytrium PUFA synthase system (e.g., sOrfA, sOrfB and nOrfC, and HetI), using similar methods as described above.

[3] = test system: Schizochytrium; experiment: DAGAT gene knock out in Schizochytrium strain B73-8, lipid profile; assay type: cell-based; settings: inactivation of the DAGAT gene in Schizochytrium B73-8
Excerpt: Using the knock out technology described above in Example 1 for FAS in Schizochytrium, the inventors similarly knocked out the DAGAT gene (comprising SEQ ID NO:100) in a Schizochytrium strain, denoted B73-8. […] Accordingly, the inventors concluded that this DAGAT is the primary enzyme responsible for TAG synthesis in Schizochytrium.

Molecule	DHA production in yeast as compared to in the absence of the added acyl-CoA synthetase gene [2]	also measured
CCC/C=C/C/C=C/C=C/C=N/NN=O [Triacsin C]		radiolabel in the FFA band (loss after addition of ATP and Mg+2) [1]: blocked the loss of radiolabel from the FFA band
ScACS-3: Schizochytrium acyl-CoA synthetase, SEQ ID NO:86/87 (protein, listed as Schizochytrium sp.) MGCSGSKPAAPGEVPAVQGYEVTEEVAPGPYDPEKGPYYVSNKAERREIIFAAKGVASEATTPAMTLSKMFRKAAEASKDEVALAVEWPVPEIGADGKIPDSLPLDKWRTWTFGQYYADSHAMARAIVALGAERFDGVTIFGFNSPFWLMAQMAATLSTTLPAGIYPTDTAEQVRYKLRYTDTAVAFCGVEKEFTMLRAAVEDAPDLKAIVCWAHLPMVKTITREDGSKVKVMSWQEALALGEITPPAEVDARIEAQNPGDCAELVFTSGTTGLPKAVMLSHDNLCFAITSIVSTLEDFGRSGPESHLSYLPLSHIAGQEMDVLLPLVVTAFRESHHAVYFVRPYDLKTGTLIDRVKTVQPTAFLGVPRVYEKIMAKMRAKGASVKGLKKKIVQYSKKKGLEYQRNLEVGGSGGKPSNYGFAEKKVLSKVKEALGFTRLKFAISGAAPMSREVQEYFAGIGIAILDVYGASESTGGVTGNSIKAHQFGTVGHTLPGMDVRVFQKAEGGDSSAETGLGELREPARAKDIFHPSEEEQGEVCFRGRSVMLGYMANPKLGEEHVAEVERKNASAIDRHGWYHSGDKGACSKKNMFVITGRYKEIIIGAGGENIAPLPMEDAVKSLAPGVANAIMIGDKRKFNIMLITLRAEGATGEFPGSDNLDPDVRSIGSDSTRTIQKAMADSKWIEHVRDAISKTNANGDACQSNAWKIGRFTILPYDISIVGGELTPTLKLKRNFVDEKYKAVIDHVYAHEGDSKDLTYVPCPIDRVPRKISGDESAAGAASPEANVAEPVTAESGSPSEVTTEAKPANETDDAESKDAAAPLAAKVDTTVPDVAQPQAAS	increased DHA production	
ScACS-5: Schizochytrium acyl-CoA synthetase, SEQ ID NO:90/91 (protein, listed as Schizochytrium sp.) MLEMREEVVKHEGEAAHFKGVKMKVFPNGFQTMVDIFKVPFEKQVMKNDLLVDETGRMTFQEVFDTAAALGDALVNEYGVEKGDRVVALSKNRNEYIVTMIAATSVGAIFAPLNSYWKTEQLSYGLDDSGAKVVVCDADRYVQLEPLLDGRASALERVLLLRGPGTEKFRPNAKTTAFDEVISKHAGARMPPFPCQKDDPAMIMYTSGTTGNPKGVVLTHRSIGEAMTGAVAAMTYEKTLAATRAGETLPEPEDPSLSAFLLAVPLFHVTGHHCVGLLSIISCRKIVLMSKWDPKLALELIESERITNFTGVPTMALDLMTHPDFKKRDTSTLKSLGGGGAAPPSTMVNDIDKNFKQASPLQAWGMTETNGIATLTEGDMYRRKPESCGKAIPNVEIAIWNARDEPVPAGAEGELVIRGSTCLKEYWNKPEATAKSITAEGWFRTGDIGVIDEEGFLQLKGRSKEIIIRGGENISCVVVENAVYNHDDINEVAAIPVPHPTLGEEVGIAVFSQSGARPSLQSIRDVCGNLARYEMPTHIYYWPEQLPRGDTGKIHKRTILADIKAGKVKDEAVPASKL	increased DHA production	
ScACS-8: Schizochytrium acyl-CoA synthetase, SEQ ID NO:96/97 (protein, listed as Schizochytrium sp.) MDAEKVIKAGAAAGAAYLGWKYLDEKHGISHDLELARRLLKLKKEINERNTKRVFNVTNMWYEAYAKNPKKPALLYLDEVVTYQDMEDRSNQVANWLLSKGLKRGDTVALLMENRPEFVISWLGMTKIGVKVALINTSIKQKPLLHCLKISGCKIVLFGSELAEPILDIKDELADLGIELAAEGAREASPDWIEVVNPEIEASPKTATSPKLREGIGMQDVFGFIYTSGTTGLPKAAVILHQKMFSFGALMTNAFQCTQDDIVYTCLPLFHSAGGGLGIGIMLYTGATVVIKRKFSVTDFWSDCVKYKCTVVQYIGELCRYLVMAESRPEETQHKVRLAIGNGLRPEIWAEFQERFQIPQIGEFYGATEGNGALVQHCTKPEDRGAVGRMGSLLMRVTGVKFARFDVLEEAPVRGADGFCIECDVDEPGELLFPIRDNDPSSAFAGYNDPKATAKKIITDAFTKGDKYFRTGDLLSRDARGRIYFRDRIGDTFRCKGENVSTSEVAEVLSTYPGIEELNIYGVQIPNNEDGRFPCAALTPKDSDLSNVDLKGFYEHAKKNLPSYSIPMFIRVQPVMPVTATMKHQKVQLRKEGMDIHVIKDPMYWLHDVKKEYDPLTEEDYARIIGQRARL	increased DHA production	
DAGAT: Schizochytrium diacylglycerol acyltransferase, SEQ ID NO:100/101; gene knocked out in strain B73-8 (protein, listed as Schizochytrium sp.) MERPQAQASPARSEARRRRGDRSKGFADEDGETSVNTPNGMQTPYSTSMGSVSSYSSSGDYAMSEAEGSEVDPADDRMGDSIGSKPSSSSVTGRRRLTQEERDYFLRLEKEWREEDAWADQPGSWYSMLAWMPVLIGLRVFNVLLSIAFWPVSFVARVFFGKKIHTVSFWDVPLSRRKQTAVVLLFVMLLPMVVVVYSWTLVLLLFPLTTFPTLCYMVWIIYVDKSPETGSRRPFLRYWKMWRHFANYFPLRLIRTTPLDSRRKYVFCYHPHGIISLGAFGNFATDSTGFSRKFPGIDLRVLTLALNFYCPLLREFLLYLGLCSAAKKSCNQILQRGPGSAIMLVVGGAAESLDSQPGTYRLTLGRKGFVRVALDNGADLVPVLAFGENDVFDTVYLPPNSWARNVQEFVRKKLGFATPIFSGRGIFQYNMGLMPHRRPIIVVVGKPIKMPKIPDELKGRALSTTAEGVALVDKYHEKYVKALRELWNLYKERWAVHRQGSLLIQK		reduction in TAG [3]: ~90%; reduction in mg FAME/gm biomass [3]: ~80%

Reference: patent publication US8426686B2, “Polyunsaturated fatty acid production in heterologous organisms using PUFA polyketide synthase systems” (DSM IP Assets B.V., priority 2006, dated 2013)
